From the Human Domainome abundance scans (Beltran et al. 2025)
± gives the uncertainty stated by the source.

B1: E3 ubiquitin-protein ligase NEDD4, residues 836 to 881; numbered along this chain, P46934 (parent)
chain: EIEQGFLPKGWEVRHAPNGRPFFIDHNTKTTTWEDPRLKIPAHLRG

Variants of: B1
Assay: abundance fitness (aPCA) (normalised: wild type 0, dead -1); higher = more abundant; growth selection in yeast, the domain comes from the species named
Details: Homo sapiens

Which abundance fitness does the source give for P41L here?
The abundance fitness was -0.469 ± 0.05.

Which abundance fitness does the source give for P41Q here?
The abundance fitness was -0.32 ± 0.087.

Which abundance fitness does the source give for P41V here?
The abundance fitness was -0.141 ± 0.042.

Which abundance fitness does the source give for P41T here?
Its abundance fitness is -0.158 ± 0.078.

Which abundance fitness does the source give for P41W here?
The abundance fitness was -0.49 ± 0.084.

Which abundance fitness does the source give for P41R here?
Its abundance fitness is -0.117 ± 0.041.

With P41S as the variant, how does the abundance fitness read?
The abundance fitness was -0.139 ± 0.064.

Which abundance fitness does the source give for P41Y here?
Its abundance fitness is -0.607 ± 0.14.

For P41M, which abundance fitness is on record?
Its abundance fitness is -0.353 ± 0.062.

For P41N, which abundance fitness is on record?
Its abundance fitness is 0.005 ± 0.049.

With L44G as the variant, how does the abundance fitness read?
Its abundance fitness is 0.056 ± 0.032.

With L44I as the variant, how does the abundance fitness read?
The abundance fitness was -0.053 ± 0.045.

For L44C, which abundance fitness is on record?
Its abundance fitness is 0.004 ± 0.041.

Which abundance fitness does the source give for L44F here?
Its abundance fitness is -0.423 ± 0.069.

For L44Y, which abundance fitness is on record?
The abundance fitness was -0.172 ± 0.039.

With L44R as the variant, how does the abundance fitness read?
The abundance fitness was -0.221 ± 0.042.

For L44K, which abundance fitness is on record?
The abundance fitness was -0.154 ± 0.072.

Which abundance fitness does the source give for L44H here?
The abundance fitness was 0.116 ± 0.069.

For L44N, which abundance fitness is on record?
The abundance fitness was -0.34 ± 0.089.

With L44M as the variant, how does the abundance fitness read?
Its abundance fitness is -0.002 ± 0.081.

With L44D as the variant, how does the abundance fitness read?
The abundance fitness was 0.116 ± 0.065.

With L44S as the variant, how does the abundance fitness read?
The abundance fitness was -0.001 ± 0.056.

Which abundance fitness does the source give for L44E here?
The abundance fitness was -0.07 ± 0.049.

For L44T, which abundance fitness is on record?
The abundance fitness was -0.027 ± 0.033.

Which abundance fitness does the source give for L44W here?
Its abundance fitness is -0.188 ± 0.051.

Which abundance fitness does the source give for L44A here?
Its abundance fitness is 0.08 ± 0.047.

Which abundance fitness does the source give for L44P here?
The abundance fitness was 0.119 ± 0.068.

With L44Q as the variant, how does the abundance fitness read?
The abundance fitness was 0.033 ± 0.063.

For R45T, which abundance fitness is on record?
The abundance fitness was -0.074 ± 0.041.

Which abundance fitness does the source give for R45S here?
Its abundance fitness is -0.131 ± 0.054.

Which abundance fitness does the source give for R45Q here?
Its abundance fitness is -0.11 ± 0.091.

For R45H, which abundance fitness is on record?
The abundance fitness was 0.104 ± 0.076.

For R45P, which abundance fitness is on record?
Its abundance fitness is 0.006 ± 0.058.

For R45C, which abundance fitness is on record?
Its abundance fitness is 0.019 ± 0.067.

For R45V, which abundance fitness is on record?
The abundance fitness was -0.055 ± 0.049.

Which abundance fitness does the source give for R45A here?
Its abundance fitness is -0.005 ± 0.061.

For R45F, which abundance fitness is on record?
Its abundance fitness is -0.174 ± 0.079.

For R45W, which abundance fitness is on record?
Its abundance fitness is -0.202 ± 0.078.

With R45L as the variant, how does the abundance fitness read?
Its abundance fitness is -0.182 ± 0.045.

Which abundance fitness does the source give for R45N here?
Its abundance fitness is 0.017 ± 0.037.

Which abundance fitness does the source give for R45E here?
The abundance fitness was 0.153 ± 0.069.

Which abundance fitness does the source give for R45Y here?
The abundance fitness was -0.072 ± 0.041.

Which abundance fitness does the source give for R45I here?
Its abundance fitness is -0.454 ± 0.1.

Which abundance fitness does the source give for R45G here?
The abundance fitness was 0.005 ± 0.041.

With R45D as the variant, how does the abundance fitness read?
The abundance fitness was 0.104 ± 0.037.

For R45K, which abundance fitness is on record?
Its abundance fitness is -0.016 ± 0.059.

For A42G, which abundance fitness is on record?
Its abundance fitness is -0.013 ± 0.04.

Which abundance fitness does the source give for A42F here?
Its abundance fitness is -0.223 ± 0.11.

For A42Q, which abundance fitness is on record?
The abundance fitness was 0.02 ± 0.046.

Which abundance fitness does the source give for A42D here?
The abundance fitness was -0.111 ± 0.04.

With A42T as the variant, how does the abundance fitness read?
Its abundance fitness is -0.22 ± 0.08.

Which abundance fitness does the source give for A42N here?
Its abundance fitness is -0.015 ± 0.043.

With A42H as the variant, how does the abundance fitness read?
Its abundance fitness is -0.086 ± 0.11.

With A42E as the variant, how does the abundance fitness read?
Its abundance fitness is 0.027 ± 0.058.

Which abundance fitness does the source give for A42M here?
Its abundance fitness is -0.181 ± 0.096.

For A42L, which abundance fitness is on record?
Its abundance fitness is -0.147 ± 0.042.

Which abundance fitness does the source give for A42K here?
Its abundance fitness is -0.092 ± 0.052.

Which abundance fitness does the source give for A42I here?
The abundance fitness was -0.398 ± 0.1.

Which abundance fitness does the source give for A42V here?
Its abundance fitness is -0.128 ± 0.035.

Which abundance fitness does the source give for A42C here?
The abundance fitness was -0.135 ± 0.047.

With A42W as the variant, how does the abundance fitness read?
The abundance fitness was -0.316 ± 0.13.

With A42S as the variant, how does the abundance fitness read?
Its abundance fitness is -0.092 ± 0.057.

For A42R, which abundance fitness is on record?
The abundance fitness was -0.273 ± 0.074.

With A42Y as the variant, how does the abundance fitness read?
The abundance fitness was -0.252 ± 0.085.

For A42P, which abundance fitness is on record?
Its abundance fitness is -0.075 ± 0.074.

For H43P, which abundance fitness is on record?
The abundance fitness was 0.094 ± 0.064.

With H43A as the variant, how does the abundance fitness read?
The abundance fitness was -0.105 ± 0.054.

Which abundance fitness does the source give for H43T here?
Its abundance fitness is 0.059 ± 0.059.

With H43N as the variant, how does the abundance fitness read?
The abundance fitness was -0.084 ± 0.063.

For H43K, which abundance fitness is on record?
Its abundance fitness is -0.04 ± 0.054.

For H43C, which abundance fitness is on record?
Its abundance fitness is -0.22 ± 0.053.

With H43D as the variant, how does the abundance fitness read?
The abundance fitness was -0.177 ± 0.087.
